Measurements taken from patent US20160060354A1 (published 2016).

Target: Her (trivalent GalNAc glycan-conjugated)
Experiment: SPR

B1: ASGPR subunit H1 (receptor)
chain: QNSQLQEELRGLRETFSNFTASTEAQVKGLSTQGGNVGRKMKSLESQLEKQQKDLSEDHSSLLLHVKQFVSDLRSLSCQMAALQGNGSERTCCPVNWVEHERSCYWFSRSGKAWADADNYCRLEDAHLVVVTSWEEQKFVQHHIGPVNTWMGLHDQNGPWKWVDGTDYETGFKNWRPEQPDDWYGHGLGGGEDCAHFTDDGRWNDDVCQRPYRWVCETELDKASQEPPLL
  koff: 1.83e-08 s⁻¹
